Laboratory results reported in article PMC6958441, “Role of the Metal Center in the Modulation of the Aggregation Process of Amyloid Model Systems by Square Planar Complexes Bearing 2-(2′-pyridyl)benzimidazole Ligands” (Pharmaceuticals, 2019).

Biological target: the molecule itself
Assay: ESI-MS; peptide alone (control) at 100 µM in 15 mM ammonium acetate pH 6.8, 25 °C, direct injection, Q-ToF; the dimer is also seen in the samples with the metal complexes 1-3

B1: NPM1_(264–277), fragment corresponding to the 2nd helix (residues 264–277) of the C-terminal domain of nucleophosmin 1 (peptide)
peptide: Ac-VEAKFINYVKNCFR-NH2
notes: The dimer seen by ESI-MS is held by a disulfide bridge through the single cysteine of the peptide; A species of 1874 Da (monomer adduct on the Cys) and oxidised forms were also in the sample; source: synthetic peptide, treated with HFIP, purified through RP-HPLC
  stoichiometry N: 2
